The labels stand for the following.
B1: Cys-variant of stresscopin peptide with N-Ethylsuccinimide (NES) reactive group SEQ ID NO: 51 (peptide)
peptide: TKFTLSLDVPTNIMNLLFNC(Succinimide(1-Et,3-yl))AKAKNLRAQAAANAHLMAQI-NH2
modifications: N-terminus assumed
SMILES: CC[C@H](C)[C@H](NC(=O)[C@H](CCC(N)=O)NC(=O)[C@H](C)NC(=O)[C@H](CCSC)NC(=O)[C@H](CC(C)C)NC(=O)[C@H](Cc1c[nH]cn1)NC(=O)[C@H](C)NC(=O)[C@H](CC(N)=O)NC(=O)[C@H](C)NC(=O)[C@H](C)NC(=O)[C@H](C)NC(=O)[C@H](CCC(N)=O)NC(=O)[C@H](C)NC(=O)[C@H](CCCNC(=N)N)NC(=O)[C@H](CC(C)C)NC(=O)[C@H](CC(N)=O)NC(=O)[C@H](CCCCN)NC(=O)[C@H](C)NC(=O)[C@H](CCCCN)NC(=O)[C@H](C)NC(=O)[C@H](CSC1CC(=O)N(CC)C1=O)NC(=O)[C@H](CC(N)=O)NC(=O)[C@H](Cc1ccccc1)NC(=O)[C@H](CC(C)C)NC(=O)[C@H](CC(C)C)NC(=O)[C@H](CC(N)=O)NC(=O)[C@H](CCSC)NC(=O)[C@@H](NC(=O)[C@H](CC(N)=O)NC(=O)[C@@H](NC(=O)[C@@H]1CCCN1C(=O)[C@@H](NC(=O)[C@H](CC(=O)O)NC(=O)[C@H](CC(C)C)NC(=O)[C@H](CO)NC(=O)[C@H](CC(C)C)NC(=O)[C@@H](NC(=O)[C@H](Cc1ccccc1)NC(=O)[C@H](CCCCN)NC(=O)[C@@H](N)[C@@H](C)O)[C@@H](C)O)C(C)C)[C@@H](C)O)[C@@H](C)CC)C(N)=O
B2: Cys-variant of stresscopin peptide with N-Ethylsuccinimide (NES) reactive group SEQ ID NO: 46 (peptide)
peptide: TKFTLSLDVPTNIMNLLFNIAKAKNLRAQAC(Succinimide(1-Et,3-yl))ANAHLMAQI-NH2
modifications: N-terminus assumed
SMILES: CC[C@H](C)[C@H](NC(=O)[C@H](CCC(N)=O)NC(=O)[C@H](C)NC(=O)[C@H](CCSC)NC(=O)[C@H](CC(C)C)NC(=O)[C@H](Cc1c[nH]cn1)NC(=O)[C@H](C)NC(=O)[C@H](CC(N)=O)NC(=O)[C@H](C)NC(=O)[C@H](CSC1CC(=O)N(CC)C1=O)NC(=O)[C@H](C)NC(=O)[C@H](CCC(N)=O)NC(=O)[C@H](C)NC(=O)[C@H](CCCNC(=N)N)NC(=O)[C@H](CC(C)C)NC(=O)[C@H](CC(N)=O)NC(=O)[C@H](CCCCN)NC(=O)[C@H](C)NC(=O)[C@H](CCCCN)NC(=O)[C@H](C)NC(=O)[C@@H](NC(=O)[C@H](CC(N)=O)NC(=O)[C@H](Cc1ccccc1)NC(=O)[C@H](CC(C)C)NC(=O)[C@H](CC(C)C)NC(=O)[C@H](CC(N)=O)NC(=O)[C@H](CCSC)NC(=O)[C@@H](NC(=O)[C@H](CC(N)=O)NC(=O)[C@@H](NC(=O)[C@@H]1CCCN1C(=O)[C@@H](NC(=O)[C@H](CC(=O)O)NC(=O)[C@H](CC(C)C)NC(=O)[C@H](CO)NC(=O)[C@H](CC(C)C)NC(=O)[C@@H](NC(=O)[C@H](Cc1ccccc1)NC(=O)[C@H](CCCCN)NC(=O)[C@@H](N)[C@@H](C)O)[C@@H](C)O)C(C)C)[C@@H](C)O)[C@@H](C)CC)[C@@H](C)CC)C(N)=O
B3: Pegylated Cys-variant stresscopin-like peptide, NES-PEG MW40000, SEQ ID NO: 100 (peptide)
peptide: TKFTLSLDVPTNIMNLLFNIAKAKNLRCQAAANAHLMAQI
modifications: NES-PEG MW40000 on Cys 28; C-terminal amide (-NH2)
B4: Pegylated Cys-variant stresscopin-like peptide, NES-PEG MW80000 & BRANCHED, SEQ ID NO: 101 (peptide)
peptide: TKFTLSLDVPTNIMNLLFNIAKAKNLRCQAAANAHLMAQI
modifications: NES-PEG MW80000 & BRANCHED on Cys 28; C-terminal amide (-NH2)
B5: Cys-variant of stresscopin peptide with N-Ethylsuccinimide (NES) reactive group SEQ ID NO: 47 (peptide)
peptide: TKFTLSLDVPTNIMNLLFNIAKAKNLRC(Succinimide(1-Et,3-yl))QAAANAHLMAQI-NH2
modifications: N-terminus assumed
SMILES: CC[C@H](C)[C@H](NC(=O)[C@H](CCC(N)=O)NC(=O)[C@H](C)NC(=O)[C@H](CCSC)NC(=O)[C@H](CC(C)C)NC(=O)[C@H](Cc1c[nH]cn1)NC(=O)[C@H](C)NC(=O)[C@H](CC(N)=O)NC(=O)[C@H](C)NC(=O)[C@H](C)NC(=O)[C@H](C)NC(=O)[C@H](CCC(N)=O)NC(=O)[C@H](CSC1CC(=O)N(CC)C1=O)NC(=O)[C@H](CCCNC(=N)N)NC(=O)[C@H](CC(C)C)NC(=O)[C@H](CC(N)=O)NC(=O)[C@H](CCCCN)NC(=O)[C@H](C)NC(=O)[C@H](CCCCN)NC(=O)[C@H](C)NC(=O)[C@@H](NC(=O)[C@H](CC(N)=O)NC(=O)[C@H](Cc1ccccc1)NC(=O)[C@H](CC(C)C)NC(=O)[C@H](CC(C)C)NC(=O)[C@H](CC(N)=O)NC(=O)[C@H](CCSC)NC(=O)[C@@H](NC(=O)[C@H](CC(N)=O)NC(=O)[C@@H](NC(=O)[C@@H]1CCCN1C(=O)[C@@H](NC(=O)[C@H](CC(=O)O)NC(=O)[C@H](CC(C)C)NC(=O)[C@H](CO)NC(=O)[C@H](CC(C)C)NC(=O)[C@@H](NC(=O)[C@H](Cc1ccccc1)NC(=O)[C@H](CCCCN)NC(=O)[C@@H](N)[C@@H](C)O)[C@@H](C)O)C(C)C)[C@@H](C)O)[C@@H](C)CC)[C@@H](C)CC)C(N)=O
B6: Cys-variant of stresscopin peptide with N-Ethylsuccinimide (NES) reactive group SEQ ID NO: 48 (peptide)
peptide: TKFTLSLDVPTNIMNLLFNIAKAKNC(Succinimide(1-Et,3-yl))RAQAAANAHLMAQI-NH2
modifications: N-terminus assumed
SMILES: CC[C@H](C)[C@H](NC(=O)[C@H](CCC(N)=O)NC(=O)[C@H](C)NC(=O)[C@H](CCSC)NC(=O)[C@H](CC(C)C)NC(=O)[C@H](Cc1c[nH]cn1)NC(=O)[C@H](C)NC(=O)[C@H](CC(N)=O)NC(=O)[C@H](C)NC(=O)[C@H](C)NC(=O)[C@H](C)NC(=O)[C@H](CCC(N)=O)NC(=O)[C@H](C)NC(=O)[C@H](CCCNC(=N)N)NC(=O)[C@H](CSC1CC(=O)N(CC)C1=O)NC(=O)[C@H](CC(N)=O)NC(=O)[C@H](CCCCN)NC(=O)[C@H](C)NC(=O)[C@H](CCCCN)NC(=O)[C@H](C)NC(=O)[C@@H](NC(=O)[C@H](CC(N)=O)NC(=O)[C@H](Cc1ccccc1)NC(=O)[C@H](CC(C)C)NC(=O)[C@H](CC(C)C)NC(=O)[C@H](CC(N)=O)NC(=O)[C@H](CCSC)NC(=O)[C@@H](NC(=O)[C@H](CC(N)=O)NC(=O)[C@@H](NC(=O)[C@@H]1CCCN1C(=O)[C@@H](NC(=O)[C@H](CC(=O)O)NC(=O)[C@H](CC(C)C)NC(=O)[C@H](CO)NC(=O)[C@H](CC(C)C)NC(=O)[C@@H](NC(=O)[C@H](Cc1ccccc1)NC(=O)[C@H](CCCCN)NC(=O)[C@@H](N)[C@@H](C)O)[C@@H](C)O)C(C)C)[C@@H](C)O)[C@@H](C)CC)[C@@H](C)CC)C(N)=O
B7: Cys-variant of stresscopin peptide with N-Ethylsuccinimide (NES) reactive group SEQ ID NO: 50 (peptide)
peptide: TKFTLSLDVPTNIMNLLFNIAKAC(Succinimide(1-Et,3-yl))NLRAQAAANAHLMAQI-NH2
modifications: N-terminus assumed
SMILES: CC[C@H](C)[C@H](NC(=O)[C@H](CCC(N)=O)NC(=O)[C@H](C)NC(=O)[C@H](CCSC)NC(=O)[C@H](CC(C)C)NC(=O)[C@H](Cc1c[nH]cn1)NC(=O)[C@H](C)NC(=O)[C@H](CC(N)=O)NC(=O)[C@H](C)NC(=O)[C@H](C)NC(=O)[C@H](C)NC(=O)[C@H](CCC(N)=O)NC(=O)[C@H](C)NC(=O)[C@H](CCCNC(=N)N)NC(=O)[C@H](CC(C)C)NC(=O)[C@H](CC(N)=O)NC(=O)[C@H](CSC1CC(=O)N(CC)C1=O)NC(=O)[C@H](C)NC(=O)[C@H](CCCCN)NC(=O)[C@H](C)NC(=O)[C@@H](NC(=O)[C@H](CC(N)=O)NC(=O)[C@H](Cc1ccccc1)NC(=O)[C@H](CC(C)C)NC(=O)[C@H](CC(C)C)NC(=O)[C@H](CC(N)=O)NC(=O)[C@H](CCSC)NC(=O)[C@@H](NC(=O)[C@H](CC(N)=O)NC(=O)[C@@H](NC(=O)[C@@H]1CCCN1C(=O)[C@@H](NC(=O)[C@H](CC(=O)O)NC(=O)[C@H](CC(C)C)NC(=O)[C@H](CO)NC(=O)[C@H](CC(C)C)NC(=O)[C@@H](NC(=O)[C@H](Cc1ccccc1)NC(=O)[C@H](CCCCN)NC(=O)[C@@H](N)[C@@H](C)O)[C@@H](C)O)C(C)C)[C@@H](C)O)[C@@H](C)CC)[C@@H](C)CC)C(N)=O
B8: Cys-variant of stresscopin peptide with N-Ethylsuccinimide (NES) reactive group SEQ ID NO: 49 (peptide)
peptide: TKFTLSLDVPTNIMNLLFNIAKAKC(Succinimide(1-Et,3-yl))LRAQAAANAHLMAQI-NH2
modifications: N-terminus assumed
SMILES: CC[C@H](C)[C@H](NC(=O)[C@H](CCC(N)=O)NC(=O)[C@H](C)NC(=O)[C@H](CCSC)NC(=O)[C@H](CC(C)C)NC(=O)[C@H](Cc1c[nH]cn1)NC(=O)[C@H](C)NC(=O)[C@H](CC(N)=O)NC(=O)[C@H](C)NC(=O)[C@H](C)NC(=O)[C@H](C)NC(=O)[C@H](CCC(N)=O)NC(=O)[C@H](C)NC(=O)[C@H](CCCNC(=N)N)NC(=O)[C@H](CC(C)C)NC(=O)[C@H](CSC1CC(=O)N(CC)C1=O)NC(=O)[C@H](CCCCN)NC(=O)[C@H](C)NC(=O)[C@H](CCCCN)NC(=O)[C@H](C)NC(=O)[C@@H](NC(=O)[C@H](CC(N)=O)NC(=O)[C@H](Cc1ccccc1)NC(=O)[C@H](CC(C)C)NC(=O)[C@H](CC(C)C)NC(=O)[C@H](CC(N)=O)NC(=O)[C@H](CCSC)NC(=O)[C@@H](NC(=O)[C@H](CC(N)=O)NC(=O)[C@@H](NC(=O)[C@@H]1CCCN1C(=O)[C@@H](NC(=O)[C@H](CC(=O)O)NC(=O)[C@H](CC(C)C)NC(=O)[C@H](CO)NC(=O)[C@H](CC(C)C)NC(=O)[C@@H](NC(=O)[C@H](Cc1ccccc1)NC(=O)[C@H](CCCCN)NC(=O)[C@@H](N)[C@@H](C)O)[C@@H](C)O)C(C)C)[C@@H](C)O)[C@@H](C)CC)[C@@H](C)CC)C(N)=O

Data on eight molecules can be found in patent publication US20110105397A1, “METHOD FOR TREATING HEART FAILURE WITH STRESSCOPIN-LIKE PEPTIDES” (priority 2009, published 2011).

Where no end group is shown, it is not given here. The star is where a group is joined. Succinimide(1-Et,3-yl) = CCN1C(=O)CC(*)C1=O

This assay has as its target T1, human corticotrophin releasing hormone receptor type 2 (CRHR2) (human, UniProt Q13324 1-411).
T1 sequence (looked up): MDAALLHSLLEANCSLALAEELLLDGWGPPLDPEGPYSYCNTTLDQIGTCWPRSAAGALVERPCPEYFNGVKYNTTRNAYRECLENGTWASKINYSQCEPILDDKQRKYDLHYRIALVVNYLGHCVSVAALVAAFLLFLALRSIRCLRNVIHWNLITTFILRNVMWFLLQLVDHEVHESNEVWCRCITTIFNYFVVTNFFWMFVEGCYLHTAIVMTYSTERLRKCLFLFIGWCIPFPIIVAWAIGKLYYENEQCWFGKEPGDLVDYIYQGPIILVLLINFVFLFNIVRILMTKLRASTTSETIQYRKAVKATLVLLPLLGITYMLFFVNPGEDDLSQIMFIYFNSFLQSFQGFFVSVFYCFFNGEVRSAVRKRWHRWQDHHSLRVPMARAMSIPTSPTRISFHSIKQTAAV
The assay is described as follows: cell-based or functional assay.
As to B1, the “Log DR” value amounted to 0.68 log10 and the pA50 is 8.79 -log10(M).
The matching figures for B2: 0.04 log10 and 9.43 -log10(M).
As for B3, the “Log DR” value is 1.1 log10 and the pA50 was 8.64 -log10(M).
Taken in the same sequence, the figures for B4 were 1.9 log10 and 7.84 -log10(M).
Take B5: the “Log DR” value is -0.03 log10 and the pA50 was 9.5 -log10(M).
On to B6, for which the “Log DR” value was found to be 0.03 log10 and the pA50 was 9.44 -log10(M).
Taken in the same sequence, the figures for B7 were -0.01 log10 and 9.48 -log10(M).
The matching figures for B8: 0.11 log10 and 9.36 -log10(M).
